In patent publication US20130157945A1 (NEW YORK UNIVERSITY SCHOOL OF MEDICINE, published 2013):

Assays:
[1] = target: T1, Atsttrin (yeast two-hybrid construct in pDBleu) (human, UniProt P04386 1-147 (Saccharomyces cerevisiae entry), limits assumed); experiment: yeast two-hybrid, β-galactosidase assay
T1 construct: domain: Gal4 DBD; also called ½A+P3+P4+½C+P5+½F; ½F-P3-P4-½A-P5-½C

[2] = target: T2, TNFR1 (as used in the surface plasmon resonance assays) (UniProt P19438 30-211, limits assumed); experiment: surface plasmon resonance (SensiQ Pioneer, FastStep kinetic assay)
T2 sequence (looked up): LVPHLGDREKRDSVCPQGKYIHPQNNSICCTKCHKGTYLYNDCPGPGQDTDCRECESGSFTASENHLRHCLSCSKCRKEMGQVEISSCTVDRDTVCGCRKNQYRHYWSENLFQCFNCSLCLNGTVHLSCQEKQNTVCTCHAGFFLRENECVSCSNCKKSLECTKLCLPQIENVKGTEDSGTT

[3] = target: T2, TNFR1 (as used in the surface plasmon …); experiment: surface plasmon resonance
[4] = target: T3, TNFR2 (as used in the surface plasmon resonance assays) (UniProt P20333 23-257, limits assumed); experiment: surface plasmon resonance
T3 sequence (looked up): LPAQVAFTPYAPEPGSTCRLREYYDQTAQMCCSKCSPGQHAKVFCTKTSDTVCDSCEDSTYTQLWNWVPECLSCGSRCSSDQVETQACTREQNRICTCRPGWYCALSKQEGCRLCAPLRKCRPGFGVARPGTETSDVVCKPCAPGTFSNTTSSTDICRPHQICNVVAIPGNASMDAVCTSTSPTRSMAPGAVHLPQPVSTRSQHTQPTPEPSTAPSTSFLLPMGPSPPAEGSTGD

[5] = target: T3, TNFR2 (as used in the surface plasmon …); experiment: surface plasmon resonance, KD against that of TNFα/TNFR2
[6] = target: T2, TNFR1 (as used in the surface plasmon …); experiment: surface plasmon resonance, KD against that of TNFα/TNFR1

B1: FAS (yeast two-hybrid plasmid of Example 9) (receptor, UniProt P25445 26-173, looked up)
chain: QVTDINSKGLELRKTVTTVETQNLEGLHHDGQFCHKPCPPGERKARDCTVNGDEPDCVPCQEGKEYTDKAHFSSKCRRCRLCDEGHGLEVEINCTRTQNTKCRCKPNFFCNSTVCEHCDPCTKCEHGIIKECTLTSNTKCKEEGSRSN
B1: no binding [1].

B2: recombinant GEP (granulin/epithelin precursor) (ligand)
chain: TRCPDGQFCPVACCLDPGGASYSCCRPLLDKWPTTLSRHLGGPCQVDAHCSAGHSCIFTVSGTSSCCPFPEAVACGDGHHCCPRGFHCSADGRSCFQRSGNNSVGAIQCPDSQFECPDFSTCCVMVDGSWGCCPMPQASCCEDRVHCCPHGAFCDLVHTRCITPTGTHPLAKKLPAQRTNRAVALSSSVMCPDARSRCPDGSTCCELPSGKYGCCPMPNATCCSDHLHCCPQDTVCDLIQSKCLSKENATTDLLTKLPAHTVGDVKCDMEVSCPDGYTCCRLQSGAWGCCPFTQAVCCEDHIHCCPAGFTCDTQKGTCEQGPHQVPWMEKAPAHLSLPDPQALKRDVPCDNVSSCPSSDTCCQLTSGEWGCCPIPEAVCCSDHQHCCPQRYTCVAEGQCQRGSEIVAGLEKMPARRGSLSHPRDIGCDQHTSCPVGGTCCPSQGGSWACCQLPHAVCCEDRQHCCPAGYTCNVKARSCEKEVVSAQPATFLARSPHVGVKDVECGEGHFCHDNQTCCRDNRQGWACCPYAQGVCCADRRHCCPAGFRCARRGTKCLRREAPRWDAPLRDPALRQLL
notes: also called purified GEP; PGRN
B2 gave a Kd [2] of 1.58 nM, a koff [2] of 0.000814 s⁻¹ and a kon [2] of 516000 M⁻¹ s⁻¹.

B3: Atsttrin (recombinant, released from GST-Atsttrin by factor Xa) (peptide)
chain: PQASCCEDRVHCCPHGAFCDLVHTRCITPTGTHPLAKKLPAQRTNRAVALSSSASSKENATTDLLTKLPAHTVGDVKCDMEVSCPDGYTCCRLQSGAWPWCEQGPHQVPWMEKAPAHLSLPDPQALKRDVPCDNVSSCPSSDTCCQLTSGEWGCCPIP
notes: Expressed in bacteria as GST fusion, cleaved with factor Xa; also called Antagonist of TNF/TNFR Signaling via Targeting TNF Receptors; purified Atsttrin
In the case of B3, the Kd [3] is reported as 160 nM, the Kd [4] is reported as 85.9 nM and the “fold higher binding affinity than TNFα” value [5] is reported as roughly 9 fold. For the same binder, the “fold lower affinity than TNFα” value [6] was roughly 18 fold.

B4: RANK (yeast two-hybrid plasmid of Example 9) (receptor, UniProt Q9Y6Q6 30-212, looked up)
chain: IAPPCTSEKHYEHLGRCCNKCEPGKYMSSKCTTTSDSVCLPCGPDEYLDSWNEEDKCLLHKVCDTGKALVAVVAGNSTTPRRCACTAGYHWSQDCECCRRNTECAPGLGAQHPLQLNKDTVCKPCLAGYFSDAFSSTDKCRPWTNCTFLGKRVEHHGTEKSDAVCSSSLPARKPPNEPHVYLP
B4: no binding [1].
